Experimental data as given in patent publication US10662235B2, “Cysteine engineered fibronectin type III domain binding molecules” (Janssen Biotech, Inc., priority 2016, dated 2020).
“Also recorded” adds a separate entry of the source.

Key:
[1] = Body weight loss / tolerability in H292-HGF xenograft study; conditions: treatment and 2 weeks observation
Description: At the time of routine monitoring, the animals were checked for any effects of tumor growth and treatments on normal behavior, such as mobility, visual estimation of food and water consumption, body weight gain/loss (body weights were measured twice weekly), eye/hair matting and any other abnormal effect.
Animals for which the body weight loss exceeded 20%, or for which the mean tumor size of the group exceeds 2000 mm^3 were euthanized. The study was terminated after two weeks of observation after the final dose.

[2] = test system: H292-HGF human lung cancer xenograft; assay: Efficacy of bispecific molecule and other inhibitors in H292-HGF xenograft model (tumor volume, T/C, T-C); format: in vivo, SCID/Beige mice; conditions: H292-HGF xenograft
Description: The H292-HGF cells were maintained in vitro in RPMI1640 medium supplemented with fetal bovine serum (10% v/v), and L-glutamine (2 mM) at 37° C. in an atmosphere of 5% CO2 in air. The cells were routinely subcultured twice weekly by trypsin-EDTA treatment. The cells growing in an exponential growth phase were harvested and counted for tumor inoculation.
Each mouse was inoculated subcutaneously at the right flank region with H292-HGF tumor cells (2×10^6) in 0.1 ml of PBS with cultrex (1:1) for tumor development. The treatments were started when the mean tumor size reached 139 mm^3. […] The date of tumor cell inoculation was denoted as day 0.
Before commencement of treatment, all animals were weighed and the tumor volumes were measured. Since the tumor volume can affect the effectiveness of any given treatment, mice were assigned into groups using randomized block design based upon their tumor volumes. […] The randomized block design was used to assign experimental animals to groups. First, the experimental animals were divided into homogeneous blocks according to their initial tumor volume. Secondly, within each block, randomization of experimental animals to treatments was conducted.
The major endpoint was whether tumor growth can be delayed or tumor bearing mice can be cured. Tumor size was measured twice weekly in two dimensions using a caliper, and the volume was expressed in mm^3 using the formula: V=0.5a×b^2 where a and b are the long and short diameters of the tumor, respectively. The tumor size was then used for calculations of both T-C and T/C values. T-C was calculated with T as the time (in days) required for the mean tumor size of the treatment group to reach 1000 mm^3, and C was the time (in days) for the mean tumor size of the control group to reach the same size. The T/C value (in percent) was an indication of antitumor efficacy; T and C were the mean volume of the treated and control groups, respectively, on a given day. Complete tumor regression (CR) is defined as tumors that are reduced to below the limit of palpation (62.5 mm^3). Partial tumor regression (PR) is defined as tumors that are reduced from initial tumor volume. A minimum duration of CR or PR in 3 or more successive tumor measurements is required for a CP or PR to be considered durable.
Statistical analyses of difference in tumor volume among the groups were evaluated using a one-way ANOVA followed by individual comparisons using Games-Howell (equal variance not assumed). All data were analyzed using SPSS 18.0. p<0.05 was considered to be statistically significant.

[3] = test system: H292-HGF tumor xenografts; assay: Tumor efficacy study with bispecific EGFR/c-Met molecules (tumor growth inhibition); format: in vivo, SCID Beige mice; conditions: 25 mg/kg three times per week (FIG. 10)
Description: One week after implantation, mice were stratified into groups with equivalent tumor volumes (mean tumor volume=77.9+/−1.7 mm^3). Mice were dosed three times per week with the bispecific molecules and tumor volumes were recorded twice weekly.

[4] = Analytical size exclusion chromatography (aggregation state, percent monomer); format: physicochemical; conditions: NEM-conjugated cysteine variants; SEC, Abs280
Description: Size exclusion chromatography was used to determine the aggregation state of the FN3 domains binding EGFR. Aliquots (10 μL) of each purified FN3 domain were injected onto a Superdex 75 5/150 column (GE Healthcare) at a flow rate of 0.3 mL/min in a mobile phase of PBS pH 7.4. Elution from the column was monitored by absorbance at 280 nm.
The percent monomer for each protein was determined by integrating the Abs280 signal and comparing the peak in the monomer region (5.5-6 minutes) to the peaks in the oligomer region (4-5.3 minutes).

[5] = Thermal stability by differential scanning calorimetry; format: physicochemical; conditions: cysteine-NEM conjugates
Description: The thermal stability of cysteine-NEM conjugates was assessed by differential scanning calorimetry (DSC). The only the conjugates tested were those determined to express at high levels, conjugate efficiently, and retain EGFR binding. Additionally, cysteine variants within the BC and FG loops were excluded. Stability data was generated by heating a 400 μL aliquot of the variant from 25° C. to 100° C. at a scan rate of 1° C. per minute in a VP-DSC instrument (MicroCal). A second identical scan was completed on the sample in order to assess the reversibility of thermal folding/unfolding. Data was fitted to a 2-state unfolding model in order to calculate the melting temperature (Table 10).
Thermal Stability of c-Met-Binding FN3 Domains Differential scanning calorimetry in PBS was used to assess the stability of each FN3 domain.

EGFR = EGFR (Homo sapiens, UniProt P00533); assay: EGFR binding assay (ELISA) of NEM-conjugated cysteine variants relative to parent
MDA-MB-435 cells = assay: Cytotoxicity assay of cytotoxin conjugates in EGFR-negative MDA-MB-435 cells; format: cell-based, human; conditions: EGFR-negative cell line; CellTiter Glo or IncuCyte object count at 66, 72 or 90 hour
Description: Cell killing was assessed by measuring viability of the EGFR-overexpressing human tumor cell line H1573 following exposure to the cysteine variant-cytotoxin conjugates. Cells were plated in black-well, clear bottomed, tissue culture-treated plates (Falcon 353219) at 7000/well in 100 μL/well of phenol red free RPMI media (Gibco 11835-030) with 5% fetal bovine serum (Gibco). Cells were allowed to attach overnight at 37° C. in a humidified 5% CO2 atmosphere. Medium was aspirated from 96-well plate and cells were treated with 50 uL of fresh media and 50 uL of 2× inhibitor made up in fresh media. Cell viability was determined by an endpoint assay with Cell TiterGlo (Promega) at 70 hours. IC50 values were determined by fitting data to the equation for a sigmoidal dose response with variable slope using GraphPad Prism 5 (GraphPad Software). Table 11 reports IC50 values obtained from analysis of the CellTiter Glo data.
Conjugates consisting of ECB147 cysteine variants, 83v2-cys, or Tencon-cys linked to a cytotoxic tubulin inhibitor from the auristatin family (FIG. 2) were tested for target-dependent cytotoxicity in cancer cells. […] Cell killing was assessed by measuring viability of the EGFR-overexpressing human tumor cell lines H1573 and A431 as well as the EGFR-negative tumor cell line MDA-MB-435 following exposure to the protein-cytotoxin conjugates using the procedure described in Example 4.

EGFR in NCI-H292 cells = target: T1, EGFR in NCI-H292 cells (Homo sapiens, UniProt P00533); assay: Inhibition of EGFR phosphorylation in NCI-H292 cells; format: cell-based; conditions: H292 cells (FIG. 7A)
T1 construct: EGF-stimulated phosphorylation of EGFR in the human tumor cell line NCI-H292; host or cells: NCI-H292
Description: Purified EGFR-binding FN3 domains were tested for their ability to inhibit EGF-stimulated phosphorylation of EGFR in A431 cells at a single concentration. EGFR phosphorylation was monitored using the EGFR phospho(Tyr1173) kit (Meso Scale Discovery). Cells were plated at 20,000/well in clear 96-well tissue culture-treated plates (Nunc) in 100 μL/well of RPMI medium (Gibco) containing GlutaMAX™ with 10% fetal bovine serum (FBS) (Gibco) and allowed to attach overnight at 37° C. in a humidified 5% CO2 atmosphere. Culture medium was removed completely and cells were starved overnight in 100 μL/well of medium containing no FBS at 37° C. in a humidified 5% CO2 atmosphere. […] Signals were detected by addition of 150 μL/well of Read Buffer (Meso Scale Discovery) and reading on a SECTOR® Imager 6000 instrument (Meso Scale Discovery) using manufacturer-installed assay-specific default settings. Percent inhibition of the EGF-stimulated positive control signal was calculated for each EGFR-binding FN3 domain.
NCI-H292, NCI-H441, or NCI-H596 cells were plated in 96 well plates in RPMI medium containing 10% FBS. […] Cells were lysed with MSD Lysis Buffer and cell signaling was assessed using appropriate MSD Assay plates, according to manufacturer's instructions, as described above. […]

EGFR in NCI-H596 cells = target: T2, EGFR in NCI-H596 cells (Homo sapiens, UniProt P00533); assay: Inhibition of EGFR phosphorylation in NCI-H596 cells; format: cell-based; conditions: H596 cells (FIG. 7B)
T2 construct: endogenous in cells; host or cells: NCI-H596
Description: NCI-H292, NCI-H441, or NCI-H596 cells were plated in 96 well plates in RPMI medium containing 10% FBS. 24 hours later, medium was replaced with serum free RPMI. […] Cells were treated for 1 h with the monospecific or bispecific molecules and then stimulated with EGF, HGF, or a combination of EGF and HGF for 15 minutes at 37° C., 5% CO2. Cells were lysed with MSD Lysis Buffer and cell signaling was assessed using appropriate MSD Assay plates, according to manufacturer's instructions, as described above.

B1: ECB38: bispecific P54AR4-83v2 / P114AR7P94-A3 linked to albumin binding domain, SEQ ID 120 (protein)
chain: MLPAPKNLVVSEVTEDSARLSWDDPWAFYESFLIQYQESEKVGEAIVLTVPGSERSYDLTGLKPGTEYTVSIYGVHNVYKDTNMRGLPLSAIFTTAPAPAPAPAPLPAPKNLVVSRVTEDSARLSWTAPDAAFDSFWIRYFEFLGSGEAIVLTVPGSERSYDLTGLKPGTEYVVNIMGVKGGKISPPLSAIFTTAPAPAPAPAPLAEAKVLANRELDKYGVSDYYKNLINNAKTVEGVKALLDEILAALP
modifications: Bispecific EGFR/c-Met binding molecule
toxicity / body weight loss / tolerability [1]: Slight toxicity; also recorded: tolerated in 7 out of 10 mice | antitumor activity [2]: complete tumor regression (CR) in all mice; also recorded: complete response | tumor growth inhibition (TGI) [3]: showed the most efficacy

B2: T68C (protein)
chain 1: MLPAPKCLVVSEVTEDSARLSWDDPWAFYESFLIQYQESEKVGEAIVLTVPGSERSYDLTGLKPGTEYTVSIYGVHNVYKDTNMRGLPLSAIFTT
chain 2: LPAPKCLVVSEVTEDSARLSWDDPWAFYESFLIQYQESEKVGEAIVLTVPGSERSYDLTGLKPGTEYTVSIYGVHNVYKDTNMRGLPLSAIFTT
modifications: EGFR binding FN3 domain; EGFR-binding FN3 domain
Percent monomer [4]: 100% | First Scan Tm ([5]; DSC 25-100° C., 1° C. per minute): 72 °C | Second Scan Tm ([5]; second identical scan): 72 °C | EGFR binding relative to P54AR4-83v2 parent, 10 nM variant in assay (EGFR; 10 nM): 0.83 | EGFR binding relative to P54AR4-83v2 parent, 100 nM variant in assay (EGFR; 100 nM): 1.04 | EGFR binding relative to P54AR4-83v2 parent, 500 nM variant in assay (EGFR; 500 nM): 0.95

B3: 83v2cy5-mal-PEG4-VC-MMAE (conjugate)
chain: MLPAPKNLVVSEVTEDSARLSWDDPWAFYESFLIQYQESEKVGEAIVLTVPGSERSYDLTGLKPGTEYTVSIYGVHNVYKDTNMRGLPLSAIFTTGGHHHHHHC
IC50 (MDA-MB-435 cells): 512 nM

B4: 83v2cy5-mal-PEG4-VK-MMAE (conjugate)
chain: MLPAPKNLVVSEVTEDSARLSWDDPWAFYESFLIQYQESEKVGEAIVLTVPGSERSYDLTGLKPGTEYTVSIYGVHNVYKDTNMRGLPLSAIFTTGGHHHHHHC
IC50 (MDA-MB-435 cells): 62 nM

B5: ECB5: bispecific P53A1R5-17v2 / P114AR7P94-A3, (GGGGS)4, SEQ ID 54 (protein)
chain: MLPAPKNLVVSEVTEDSARLSWADPHGFYDSFLIQYQESEKVGEAIVLTVPGSERSYDLTGLKPGTEYTVSIYGVHNVYKDTNMRGLPLSAIFTTGGGGSGGGGSGGGGSGGGGSMLPAPKNLVVSRVTEDSARLSWTAPDAAFDSFWIRYFEFLGSGEAIVLTVPGSERSYDLTGLKPGTEYVVNIMGVKGGKISPPLSAIFTT
modifications: bispecific EGFR/cMet binding molecule
inhibition of phosphorylation of EGFR, bispecific vs monospecific (EGFR in NCI-H292 cells): comparable | inhibition of phosphorylation of EGFR, bispecific vs monospecific (EGFR in NCI-H596 cells): comparable
